The subject of data set [1] is His228 (position 228, SCDKTHTCPPC).
For data set [2], the system named is His272 (position 272, VVDVSHEDPEV).
The test system of data set [3] is His289 (position 289, DGVEVHNAKTK).
For data set [4], the system named is His57 (position 57, TWNSGHIDYAD).

As a reminder, the pKa is the negative logarithm of the acid dissociation constant. Higher therefore signals a weaker acid or stronger base. Take “Adalimumab (therapeutic monoclonal IgG1 kappa antibody, anti-TNF) (Homo sapiens (recombinant fully human antibody))”: the pKa was 6.4 in data set [1], 7.0 in data set [2], 6.2 in data set [3] and 6.9 in data set [4].

The record behind these values is publication PMC7156388.
